{
  "source": "patent US20100255003A1",
  "assay_in_all_cases": "cell-based or functional assay",
  "key": {"[1]": {"target": "Thrombospondin (TSP)-1 (human) (UniProt P07996)", "sequence (P07996 19-1170 A84T limits assumed)": "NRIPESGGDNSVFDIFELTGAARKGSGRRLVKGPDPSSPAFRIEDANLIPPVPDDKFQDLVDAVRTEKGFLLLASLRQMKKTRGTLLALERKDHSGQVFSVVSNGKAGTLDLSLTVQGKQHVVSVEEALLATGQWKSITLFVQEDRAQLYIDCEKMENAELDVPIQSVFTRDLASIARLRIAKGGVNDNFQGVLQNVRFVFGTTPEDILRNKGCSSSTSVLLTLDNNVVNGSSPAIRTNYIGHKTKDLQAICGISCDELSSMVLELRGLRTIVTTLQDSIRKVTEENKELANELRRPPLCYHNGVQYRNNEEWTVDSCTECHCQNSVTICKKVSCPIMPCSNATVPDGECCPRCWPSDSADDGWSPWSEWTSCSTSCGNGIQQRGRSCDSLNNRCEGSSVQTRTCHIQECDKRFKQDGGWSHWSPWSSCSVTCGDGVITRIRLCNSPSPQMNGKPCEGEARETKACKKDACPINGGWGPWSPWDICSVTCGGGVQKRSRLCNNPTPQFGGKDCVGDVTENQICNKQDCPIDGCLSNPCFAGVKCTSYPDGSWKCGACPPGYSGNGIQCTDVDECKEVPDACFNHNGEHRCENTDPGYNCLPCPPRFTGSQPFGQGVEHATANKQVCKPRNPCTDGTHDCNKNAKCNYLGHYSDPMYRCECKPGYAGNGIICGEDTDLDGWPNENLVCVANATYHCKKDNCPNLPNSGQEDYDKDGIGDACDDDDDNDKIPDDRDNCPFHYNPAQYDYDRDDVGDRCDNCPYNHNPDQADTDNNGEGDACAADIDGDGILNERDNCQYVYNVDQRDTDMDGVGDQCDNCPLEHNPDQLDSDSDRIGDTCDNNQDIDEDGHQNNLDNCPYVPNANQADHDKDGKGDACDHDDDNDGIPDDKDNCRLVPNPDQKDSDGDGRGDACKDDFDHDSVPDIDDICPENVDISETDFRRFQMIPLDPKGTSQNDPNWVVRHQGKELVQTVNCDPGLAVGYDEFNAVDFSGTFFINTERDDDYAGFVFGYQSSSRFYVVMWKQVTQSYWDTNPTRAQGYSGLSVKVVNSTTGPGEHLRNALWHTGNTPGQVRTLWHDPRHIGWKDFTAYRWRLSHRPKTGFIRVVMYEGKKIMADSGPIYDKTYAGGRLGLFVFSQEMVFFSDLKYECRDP"}, "CD36 (human)": {"target": "CD36 (human) (UniProt P16671)", "sequence (P16671 2-472)": "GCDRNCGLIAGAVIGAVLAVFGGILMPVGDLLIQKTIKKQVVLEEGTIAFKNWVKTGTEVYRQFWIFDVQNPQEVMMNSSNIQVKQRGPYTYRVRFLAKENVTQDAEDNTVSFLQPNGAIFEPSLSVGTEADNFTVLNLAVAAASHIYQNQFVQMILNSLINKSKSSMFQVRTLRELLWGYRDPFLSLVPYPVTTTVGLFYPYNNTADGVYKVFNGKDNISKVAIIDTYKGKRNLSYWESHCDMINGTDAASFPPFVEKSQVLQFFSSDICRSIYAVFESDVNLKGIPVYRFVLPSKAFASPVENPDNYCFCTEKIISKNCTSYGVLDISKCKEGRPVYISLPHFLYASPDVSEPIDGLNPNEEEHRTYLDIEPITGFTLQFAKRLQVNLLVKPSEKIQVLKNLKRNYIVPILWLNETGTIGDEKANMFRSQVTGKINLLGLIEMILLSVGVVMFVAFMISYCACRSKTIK"}, "[2]": {"target": "CD51/alphaV integrin (human) (UniProt P06756)", "sequence (P06756 31-1048)": "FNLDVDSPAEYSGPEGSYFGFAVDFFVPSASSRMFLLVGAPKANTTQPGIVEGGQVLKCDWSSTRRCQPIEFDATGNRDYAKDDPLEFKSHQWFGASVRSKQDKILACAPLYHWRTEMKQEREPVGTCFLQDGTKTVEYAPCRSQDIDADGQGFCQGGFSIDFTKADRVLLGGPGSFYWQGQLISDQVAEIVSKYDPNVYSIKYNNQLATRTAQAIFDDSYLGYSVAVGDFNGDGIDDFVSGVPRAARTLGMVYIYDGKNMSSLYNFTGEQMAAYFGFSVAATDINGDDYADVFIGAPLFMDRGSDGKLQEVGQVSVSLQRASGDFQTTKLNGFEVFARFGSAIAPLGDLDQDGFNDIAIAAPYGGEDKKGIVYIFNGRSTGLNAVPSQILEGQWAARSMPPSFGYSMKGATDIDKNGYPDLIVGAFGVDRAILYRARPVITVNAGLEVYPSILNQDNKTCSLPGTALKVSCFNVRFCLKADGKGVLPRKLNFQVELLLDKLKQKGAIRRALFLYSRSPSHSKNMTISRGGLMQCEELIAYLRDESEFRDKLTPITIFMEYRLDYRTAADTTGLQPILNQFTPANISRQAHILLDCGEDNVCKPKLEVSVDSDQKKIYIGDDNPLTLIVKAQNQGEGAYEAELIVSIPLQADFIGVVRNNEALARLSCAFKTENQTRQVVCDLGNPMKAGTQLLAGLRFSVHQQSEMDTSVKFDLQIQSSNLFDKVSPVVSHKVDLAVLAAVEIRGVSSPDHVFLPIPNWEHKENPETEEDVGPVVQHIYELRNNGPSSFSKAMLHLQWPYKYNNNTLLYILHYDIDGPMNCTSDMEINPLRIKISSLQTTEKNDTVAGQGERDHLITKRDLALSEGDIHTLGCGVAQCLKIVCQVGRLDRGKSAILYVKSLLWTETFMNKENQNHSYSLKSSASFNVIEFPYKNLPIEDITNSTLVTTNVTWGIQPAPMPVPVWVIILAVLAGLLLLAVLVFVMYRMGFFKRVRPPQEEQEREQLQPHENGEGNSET"}},
  "data": [
    {"substance": "azide-free polyclonal goat anti-human thrombospondin-1 N-terminus antibody N-20 (Santa Cruz Biotechnology, Cat No. sc-12312)", "values": [
      {"measurement": "inhibition of apoptotic monocyte endocytosis by immature dendritic cells (percentage of thrombospondin-1-dependent endocytosis)", "setting": "[1]", "value": 90, "unit": "percent"}
    ]},
    {"substance": "mouse IgM anti-human CD36 monoclonal antibody (clone SMO; Serotec, Cat. No. MCA722XZ)", "values": [
      {"measurement": "inhibition of apoptotic monocyte endocytosis by immature dendritic cells (percentage of thrombospondin-1-dependent endocytosis)", "setting": "CD36 (human)", "value": 64, "unit": "percent"}
    ]},
    {"substance": "mouse anti-CD51/integrin alphaV monoclonal antibody (clone AV1; Chemicon International, Cat. No. MAB2021Z)", "values": [
      {"measurement": "inhibition of apoptotic monocyte endocytosis by immature dendritic cells (percentage of thrombospondin-1-dependent endocytosis)", "setting": "[2]", "value": 24, "unit": "percent"}
    ]}
  ]
}
